US20190330638A1 (MAYO FOUNDATION FOR MEDICAL EDUCATION AND RESEARCH, published 2019)

Molecular target: T1, Ubiquitin-H4 fusion construct (UniProt P0CG48 1-76; P62805 1-103, limits assumed)
T1 construct: Linear fusion used as control bait for pull-down/mass spectrometry; a single ubiquitin unit is meant; also called Ub-H4; Ubquitin-H4
Test: pull-down with fusion construct, mass spectrometry

binding result: no binding
B1: serine/threonine kinase 38 (STK38) (enzyme)
chain: not shown
notes: Endogenous protein from cell lysates (pull-down/mass spectrometry, immunoprecipitation with STK38 antibody); also called NDR1
